From patent US20220010003A1 (Boehringer Ingelheim, published 2022) come the findings set out here.

The target of assay [1] is T1, recombinant human periostin (human, UniProt Q15063 22-836).
T1 sequence: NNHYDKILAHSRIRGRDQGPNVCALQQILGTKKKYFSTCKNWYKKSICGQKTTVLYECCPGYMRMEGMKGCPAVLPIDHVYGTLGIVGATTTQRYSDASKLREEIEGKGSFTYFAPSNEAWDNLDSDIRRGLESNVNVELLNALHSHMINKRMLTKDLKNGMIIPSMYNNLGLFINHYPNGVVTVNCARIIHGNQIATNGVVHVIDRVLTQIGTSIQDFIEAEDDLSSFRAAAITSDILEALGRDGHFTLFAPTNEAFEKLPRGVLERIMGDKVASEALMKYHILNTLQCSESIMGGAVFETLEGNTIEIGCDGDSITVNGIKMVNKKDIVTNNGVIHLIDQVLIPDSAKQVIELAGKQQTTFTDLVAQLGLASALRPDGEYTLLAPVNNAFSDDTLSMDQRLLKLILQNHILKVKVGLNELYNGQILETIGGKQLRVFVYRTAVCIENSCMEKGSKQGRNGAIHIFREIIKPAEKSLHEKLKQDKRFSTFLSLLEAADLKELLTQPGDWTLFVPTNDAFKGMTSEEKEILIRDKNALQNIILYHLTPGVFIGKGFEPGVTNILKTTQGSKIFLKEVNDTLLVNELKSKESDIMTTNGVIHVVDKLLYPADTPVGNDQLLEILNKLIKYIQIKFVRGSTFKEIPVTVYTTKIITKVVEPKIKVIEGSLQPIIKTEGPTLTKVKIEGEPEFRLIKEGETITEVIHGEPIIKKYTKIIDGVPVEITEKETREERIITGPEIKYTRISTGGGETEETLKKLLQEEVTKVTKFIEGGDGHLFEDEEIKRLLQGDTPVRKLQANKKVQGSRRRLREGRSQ
Briefly: cell-based or functional assay.

Assay [2] has as its target T1, recombinant human periostin. Briefly: BLI (Octet Red), NB0828 captured on anti-human Fc (AHC) biosensors, periostin titrated from 100 nM. On the procedure: (§1) NB0828's binding affinity was determined across human, mouse, rat, and cyno species. NB0828 affinities were determined using the octet red system. Briefly, anti-human Fc (AHC) biosensors were used to capture NB0828, followed by association of titrating amounts of either recombinant human, mouse, rat, or cyno periostin (100 nM→0 nM; 1:2 dilutions). Recombinant human, mouse, and rat periostin was purchased commercially from R&D systems, whereas cyno periostin was made internally.
(In general: In BLI a coated tip is dipped into the sample, and binding shifts an interference pattern.)

Assay [3] deals with T2, recombinant mouse periostin (mouse, UniProt Q62009-2 24-811, limits assumed).
T2 construct: also called MoPOSTN
T2 sequence (looked up): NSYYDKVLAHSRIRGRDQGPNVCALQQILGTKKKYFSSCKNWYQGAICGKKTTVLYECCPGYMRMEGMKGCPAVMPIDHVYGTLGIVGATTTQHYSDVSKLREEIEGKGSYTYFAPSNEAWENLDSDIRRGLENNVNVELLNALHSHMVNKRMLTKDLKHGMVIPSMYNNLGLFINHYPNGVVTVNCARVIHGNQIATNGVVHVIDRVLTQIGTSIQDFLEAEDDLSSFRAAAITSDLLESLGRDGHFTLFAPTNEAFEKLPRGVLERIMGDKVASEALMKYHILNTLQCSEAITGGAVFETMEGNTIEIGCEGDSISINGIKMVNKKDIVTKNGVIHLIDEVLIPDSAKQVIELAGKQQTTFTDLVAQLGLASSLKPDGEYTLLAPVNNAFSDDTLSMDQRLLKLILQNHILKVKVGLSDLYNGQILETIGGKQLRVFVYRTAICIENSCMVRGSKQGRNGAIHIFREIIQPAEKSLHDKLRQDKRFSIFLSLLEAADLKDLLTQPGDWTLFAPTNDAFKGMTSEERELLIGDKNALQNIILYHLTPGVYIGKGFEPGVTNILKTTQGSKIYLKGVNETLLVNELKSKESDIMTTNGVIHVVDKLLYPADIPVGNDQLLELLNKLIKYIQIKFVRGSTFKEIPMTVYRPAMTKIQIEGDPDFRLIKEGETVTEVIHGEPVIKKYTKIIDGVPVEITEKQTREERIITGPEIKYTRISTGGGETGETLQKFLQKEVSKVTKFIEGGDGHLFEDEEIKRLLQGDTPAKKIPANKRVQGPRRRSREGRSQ
The assay is described as above. On the procedure:
as §1

For assay [4], the target named is T3, recombinant rat periostin (rat, UniProt A0A8I6AHK0 24-838).
T3 construct: also called RatPOSTN
The description is as above. As for the experimental part: as §1

In assay [5] the target is T4, recombinant cyno periostin (cyno, UniProt F6ZVK0 47-861 (rhesus entry)).
T4 construct: also called CynoPOSTN
T4 sequence: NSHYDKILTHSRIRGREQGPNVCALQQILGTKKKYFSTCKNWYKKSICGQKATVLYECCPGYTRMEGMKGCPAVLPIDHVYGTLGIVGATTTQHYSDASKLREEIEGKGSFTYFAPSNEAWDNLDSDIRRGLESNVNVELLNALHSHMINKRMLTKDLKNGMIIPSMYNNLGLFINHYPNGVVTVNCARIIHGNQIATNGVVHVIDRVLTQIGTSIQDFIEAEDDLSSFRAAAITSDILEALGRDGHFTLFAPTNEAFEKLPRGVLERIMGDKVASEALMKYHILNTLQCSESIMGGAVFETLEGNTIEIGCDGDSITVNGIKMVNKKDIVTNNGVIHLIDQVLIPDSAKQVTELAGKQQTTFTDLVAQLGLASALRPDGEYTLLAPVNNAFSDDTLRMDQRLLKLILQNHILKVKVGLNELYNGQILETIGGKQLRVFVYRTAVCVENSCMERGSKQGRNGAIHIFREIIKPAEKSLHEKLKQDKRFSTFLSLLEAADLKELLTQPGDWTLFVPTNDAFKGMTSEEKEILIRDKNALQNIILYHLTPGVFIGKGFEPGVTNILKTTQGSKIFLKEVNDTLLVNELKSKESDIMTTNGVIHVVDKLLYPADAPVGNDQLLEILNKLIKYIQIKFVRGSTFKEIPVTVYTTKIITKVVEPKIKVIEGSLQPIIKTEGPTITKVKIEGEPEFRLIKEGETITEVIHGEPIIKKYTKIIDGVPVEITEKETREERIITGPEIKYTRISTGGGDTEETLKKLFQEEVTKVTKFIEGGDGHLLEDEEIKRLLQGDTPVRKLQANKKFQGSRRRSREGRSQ
The assay is described as above. As for the experimental part:
as §1

B1: NB0828 (antibody, V domains shown)
VH: QVQLVQSGAEVKKPGASVKVSCKASGYTFTSYGISWVRQAPGQGLEWMGWISAYNGNTNYAQKLQGRVTMTTDTSTSTAYMELRSLRSDDTAVYYCARDMLVVPFDYWGQGTLVTVSS
VL: QSVLTQSSSASGTPGQTVTVSCSGSSSDIGSNRVNWYQQLPGTAPKLLIYSNDQRPSGVPDRFSGSKSGTSASLAISGLQSADEADYYCAAWDDSLSTYVFGSGTKVTVL
Usually Kd stands for the concentration at which binding is half-saturated. As usually defined, the koff is the first-order rate constant of dissociation. What is called kon is the rate constant with which the complex forms. For B1, the “CAA IC50” value in assay [1] stood at 24.3 nM. For the same molecule, the Kd in assay [2] worked out at 0.351 nM; in assay [3] it was 0.114 nM; in assay [4] it was 0.54 nM; in assay [5] it was 0.265 nM. Moreover, the koff stood at 0.000246 s⁻¹ in assay [2], 7.64e-05 s⁻¹ in assay [3], 0.000393 s⁻¹ in assay [4] and 0.000211 s⁻¹ in assay [5]. In addition, the kon was 702000 M⁻¹ s⁻¹ in assay [2], 670000 M⁻¹ s⁻¹ in assay [3], 727000 M⁻¹ s⁻¹ in assay [4] and 794000 M⁻¹ s⁻¹ in assay [5].
